Laboratory results published in the DeepSol protein solubility set.

Test: soluble on expression in E. coli; label from the status in PepcDB or PDB records

Question: For “MRRVNILCSFALLFASHTSLAVTYPLPPEGSRLVGQSFTVTVPDHNTQPLETFAAQYGQGLSNMLEANPGADVFLPKSGSQLTIPQQLILPDTVRKGIVVNVAEMRLYYYPPDSNTVEVFPIGIGQAGRETPRNWVTTVERKQEAPTWTPTPNTRREYAKRGESLPAFVPAGPDNPMGLYAIYIGRLYAIHGTNANFGIGLRVSQGCIRLRNDDIKYLFDNVPVGTRVQIIDQPVKYTTEPDGSNWLEVHEPLSRNRAEYESDRKVPLPVTPSLRAFINGQEVDVNRANAALQRRSGMPVQISSGSRQMF”, which “soluble on expression in E. coli” value is on record?
Answer: The value was “not soluble”.

Question: For “MRSQRELTSPMTPLENPGDISDKPRLTTQKLSLGYGQQLIINKLSLSIKNGAFSVIIGPNGCGKSTLLRALSRSLLPQNGSIRLDQQDIQHYKAKVFARQLSLLSQGASISETLTVFDLVSRGRYAHQSFFHQWSTEDERIVKAAISAVNLESLVQQRVSELSGGQRQRAWFAMTLAQHTPIVLLDEPTTYLDIAHQIEMLDLCQELQQQGKTLVLVLHDINQALRYATHLIMLKEGQIYAEGLPESIVTEDSIAAVFGLRCRIITDPESGKPLVIPRRQSR”, which “soluble on expression in E. coli” value is on record?
Answer: The value was “not soluble”.

Question: With “MRSSQAIDFERIPEMEDKWRKEITAMTVTLQDKRKAIQNDEILRGVHPKSHGCLDAEFTVNRDIAPQFQVGLFAQPGKCFRARIRYSNADVLKRADLEKGQDATGARFLNHGSRGMAIKVLDVGAPVLLEDGCARNQDFLMVNTPEFAFRNVRDYLRLTKALCASADGADPLLFFLPGELLKRGMMDMSGSLLPAPAGEPPQNAGLRALFEANRAFFDDFDAEDMQGVISAAGVVGKIQSTPVRNPLFAPYFSAASFRFGKDRVMRFSVVPLQSEEMAADMASDAFEDFSDDYLSQALALSVATNEPIKLSFRIQIAHEEDIVNDIDGMIENAAKTWDEDQFSHTEVAQITINPPCPSAELVDTCKPLLFTPWHAVVDFEPLGGINRLRKPVYSTSAAFRRSVLEHHHHHH” as the sequence, how does the “soluble on expression in E. coli” value read?
Answer: The value was “not soluble”.

Question: Which “soluble on expression in E. coli” value does the source give for “MRSVLQSEVSECGLASLAMVANAHGKHLTLSQLRQRFPSSLKGAKLTHLVHIAQQLGFSTRPLRLDMEDLGKLKLPCILHWDLNHFVVLAKVGTTKVTIYDPAIGKRKLSLNEVSKYFTGIALELTTTTE” here?
Answer: The value was “not soluble”.

Question: With “MRTVSHPTPLRRAPVQRRSAERLTRILDACADLLDEVGYDALSTRAVALRADVPIGSVYRFFGNKRQMADALAQRNLERYAERVTERLTEAGDGGWRGALDTVLDEYLAMKRTAPGFSLIDFGNQIPVGDRHAVPNHRVAERLTELLSGYLGRRPDDDLRRVFLVAVETADTLVQLAFRVAPDGDEKIIEEARELLRAYLGRVLD” as the sequence, how does the “soluble on expression in E. coli” value read?
Answer: The value was “soluble”.

Question: Which “soluble on expression in E. coli” value does the source give for “MRVALTIAGSDSGGGAGVQADLKVFFRFGVYGTSALTLVTAQNTLGVQRVHLLPPEVVYAQIESVAQDFPLHAAKTGALGDAAIVEAVAEAVRRFGVRPLVVDPVMVAKSGDPLLAKEAAAALKERLFPLADLVTPNRLEAEALLGRPIRTLKEAEEAAKALLALGPKAVLLKGGHLEGEEAVDLLATRGGVLRFSAPRVHTRNTHGTGCTLSAAIAALLAKGRPLAEAVAEAKAYLTRALKTAPSLGHGHGPLDHWA” here?
Answer: The value was “soluble”.

Question: With “MRVFVVGGTGFVGQEVVRLLLARGHTPLVLARRSRPLPEGAVLVEGDIAREVPDLEGVEAAIYLAGIIRERGQTFRAVHVEGVRNLLRAMERAGVGRLLHMSALGARPEAPSRYHRTKAEGEALVRQSGLSHAIFRPSLIFGPGDEFFGRVLRGLVCAPLPFVPLIGDGGFPFRPVYVGDVAEAFVGALERGLEGTYDLVGPKEYSFRELLQLVMEVLGRRKPFLSLPLWLMDRLVPLLSPLPISPLTLDQYLMLKEGNTAPFPEALKELLPAPQALEEVLPRYLRC” as the sequence, how does the “soluble on expression in E. coli” value read?
Answer: Its value is “soluble”.

Question: For “MRVYVFTPDGDVLDLPHGVTPLDFAYHVHSNLGHRCRGAKVNGHIVPLTYQLKTGDRVEVLTGKEIKPSRLEHHHHHH”, which “soluble on expression in E. coli” value is on record?
Answer: Its value is “not soluble”.

Question: Which “soluble on expression in E. coli” value does the source give for “MRYFIVAGEASGDLHASNLVRALKEHDPEAVFAFMGGDFLSEATGERPIFHYREVAFMGFIPVLTHLGVIRRAGEHVQEQMRAFNPDVVIAVDYPGFNMRYVLPFVREELGKPIVYYISPKVWAWKSWRIKTLKKYVDLMLCILPFEKDFFAGHDFPVIYVGNPCYDAVKQHMRPTIEEQERSAKDSRQVALLCGSRLLEVKENLPVMLRVMKQFPDYRPVIAGAPGLTIQDYTPFLPDDSIPVVFGRTYEILRESKAALVTSGTATLETALIGTPQVVCYYIRGGRLTNLIFKYCFGTPFISLTNLIAGRAVVPELFGALFTEKRLAASLSPLLDASSAERQAQLSGYDSIRKSIGTDNTSDKAARHIIARFAKDNARPSSL” here?
Answer: The value was “not soluble”.

Question: Which “soluble on expression in E. coli” value does the source give for “MRYTILTKGDSKSNALKHKMINHMKDFQMVEDSENPEIVISVGGDGTLLQAFHQYSHMLSKVAFVGIHTGHLGFYADWLPHEVEKLIIEINNSEFQVIEYPLLELIVRYNDNGYETRYLALNEATMKTENGSTLVVDVNIRGKHFERFRGDGLCISTPSGSTAYNKALGGALIHPSLEAMQIAEIASINNRVFRTVGSPLVLPKHHTCLITPVNHDTIRTTIDHVSIKHKNVNAIQYRVANEKVRFARFRPFPFWKRVHDSFISSDDERMAGDPLEHHHHHH” here?
Answer: The value was “soluble”.

Question: With “MSAEVETSEGVDESEKKNSGALEKENQMRMADLSELLKEGTKEAHDRAENTQFVKDFLKGNIKKELFKLATTALYFTYSALEEEMERNKDHPAFAPLYFPMELHRKEALTKDMEYFFGENWEEQVQCPKAAQKYVERIHYIGQNEPELLVAHAYTRYMGDLSGGQVLKKVAQRALKLPSTGEGTQFYLFENVDNAQQFKQLYRARMNALDLNMKTKERIVEEANKAFEYNMQIFNELDQAGSTLARETLEDGFPVHDGKGDMRKCPFYAAEQDKGALEGSSCPFRTAM” as the sequence, how does the “soluble on expression in E. coli” value read?
Answer: The value was “soluble”.

Question: Which “soluble on expression in E. coli” value does the source give for “MSAFQGNMFVLVNVDQHRDLIGPIINQLVADYGTPVSIVDNIQKICPKCSCTPHANPDSSSVPTTTSSDEHQEEPPTPKTIAPAPIATPVLKPLLPQRESIVSNGIHPVVVKRKQSIAEEIDTPEIKKSRVVEPVKVKTETIILDDDDGNVLDTVLAALQNGNHEMQFTGSGGSSDDGASNSSNIYDVDDEDYGTSQWNPDFLTNFITSQPNIFSVTGQNIKSSPSKNAGQTPNGKRQVPPMLTVNGKTRRGRIVYSTQELNILEKYYEEDPNACADPRKRETMCKTLSIDYHRLKVWFQNRRRKDKVRSQEEAATTFNGLDYSEDS” here?
Answer: Its value is “not soluble”.

Question: For “MSAIIDPSTGKPFKADKQIMGEDIARAYTTGIRNPRPTSVASTITPQRLAGVLRSVIDGNDPEAYMTLAEEIEERDLHYAAQLRTRKFAVAAITPTVEAASDDAIDVLMAERAREIINDDQIPELFFDLLDGLGKGLAVVQILWDTKSTPWKPQDYKWVDPRYLRQDQQTLEQILLISEDAPMGAELEPYKFIIHTPRSKSGSVWRNGLARLVAVMYMLKSFTVRDWWAFAEVFGVPVRVGKYGANASESDISTLINAIGRIASDAGAVIPESMKLELIETAKGNGGDTLFENMARWCDEQISKAVLGQTMTADNGSSQSQATVHNEVRIDIAKWDARQLEASINEYLIKPYIILNWGEQLRYPKVRIKVPEPEDLQLLVNSLTPLIDRGLKVSASEMADKLGLGTVDADEDILLPFQTVGIQAMPTALNRANSQTIAINQVRNTAEREIDNLANEAMGEWEQVAEEFMNPIIDLANKSASYDEFAAGLPALQQQLGAEQFIAQMAQYMFQLRGLGDAQDG”, which “soluble on expression in E. coli” value is on record?
Answer: Its value is “soluble”.

Question: Which “soluble on expression in E. coli” value does the source give for “MSAIKVFILSDSIGETAHNVALAAAAQFSDYDIRYQRFPFVRTDSLLQTVLSQALKEHAAIFHTFVDRRLSQIVNQFCEAHELPYYDVITPALDTFSQITHVQPSNHPGTVHALNTNYFDRINAIEFAVTYDDGKNPSGFLEADVVLLGVSRTSKTPLSLYLANRNLKVANLPLVPQAQIPDEIWKVDPKKIFGLTNDPEKLNDIRRQRMVQYGLNPDTMYSNTDKIKAELEYADKIFKKIGCLVINVANKSIEETATLITESLNTDDTNNGLEHHHHHH” here?
Answer: Its value is “soluble”.

Question: With “MSAKHPVIAVTGSSGAGTTTTSLAFRKIFAQLNLHAAEVEGDSFHRYTRPEMDMAIRKARDAGRHISYFGPEANDFSLLEHTFIEYGQTGKGQSRKYLHTYDEAVPWNQVPGTFTPWQPLPEPTDVLFYEGLHGGVVTPQHDVARHVDLLVGVVPIVNLEWIQKLIRDTSERGHSREAVMDSVVRSMDDYINYITPQFSRTHINFQRVPTVDTSNPFAAKGIPSLDESFVVIHFRNLEGIDFPWLLAMLQGSFISHINTLVVPGGKMGLAMELIMLPLVQRLMEGKKIE” as the sequence, how does the “soluble on expression in E. coli” value read?
Answer: The value was “not soluble”.

Question: Which “soluble on expression in E. coli” value does the source give for “MSANNTAKNMHPETRAVGSETSSLQASQDEFENLVRNVDVKSRIMDQYADWKGVRYRLGGSTKKGIDCSGFVQRTFREQFGLELPRSTYEQQEMGKSVSRSNLRTGDLVLFRAGSTGRHVGIYIGNNQFVHASTSSGVIISSMNEPYWKKRYNEARRVLSRSLEHHHHHH” here?
Answer: The value was “soluble”.

Question: With “MSAPPTAPADPSTGSDRPKRSVPPPRHPTHAVDRAFLDLERRRPEVRWDAGGVAYLSGPPPSLADLRAYVAFRLGELPLLTSRVTGGRRPGWQPSEDFPVDRHVYEVVADGPADWDTALHSALNAPFAPGAYWGVWLIHGHEPDAYALCYRFLHACQDGSAAAMTFRAMLGDGEPSARPLPGGSGVFGVPRRFGAAVALATRFLARTFTVRRHRPDPAFAPAGERRLWRGRVPVDTLRLIGAGRGGSAHDAHLAALAGALSVWAARSGVPLPRVTAVLPVDARRADEEQTWGNRCFALPVDLPVGPAPGRPDGSPDEEAPLRRLDQIMAVTRKLRGDTWRQAVQDLVRYMPDRPTAWYLRRMLSPRVTNVMATSMPLAEKGSLGETRVTGTALLPLLVPGHLCGVGLSFFGDWAEVSFVADRALPLGELLPELWEQAVRELAESVQRGLEHHHHHH” as the sequence, how does the “soluble on expression in E. coli” value read?
Answer: Its value is “not soluble”.

Question: With “MSASVSLTTPVSVSCLINDVNPSVKAKKEDATAVTTTQAPKIAEAIHRSTPTLADNVLYDSTSYTHGVTTGSTNVPISSGQRPQQADYSLALLAKDVYAPTSGNLNGFVRLSDERLLAAGIDPTALSDSASGFLAGIYSDNQQYVLSFAGTNDRHDWLSNIRQAVGYEDVQYNEAVALGKTAKMAFGDALVITGHSLGGGLAATAALATGTFAVTFNAAGVAKNTLKRLGMDSAKARRSAENGGIRSYSEKYDLLTGIQELTSLIPNAVGHKIVLANSDKLTGVDDWLPHKHLERRISAHSIEKVLSSMSEQQPWERRYV” as the sequence, how does the “soluble on expression in E. coli” value read?
Answer: The value was “not soluble”.

Question: Which “soluble on expression in E. coli” value does the source give for “MSATASVATRHDWSLAEVRALFEQPFNDLLFQAQTVHRAHFDPNRVQVSTLLSIKTGACPEDCKYCPQSGHYNTGLDKEKLMEVQKVLEAAAEAKAIGSTRFCMGAAWKHPSAKDMPYVLEMVKGVKKLGLETCMTLGRLTQEQTQALADAGLDYYNHNLDTSPEFYGNIITTRTYSERLQTLAYVREAGMKICSGGILGMGESVDDRAGLLIQLANLPEHPESVPINMLVKVKGTPLAEEKDVDPFDFIRTLAVARIMMPKSHVRLSAGREQMNEQMQALAFMAGANSIFYGEKLLTTKNPQAEKDMQLFARLGIKPEEREEHADEVHQAAIEQALVEQRESKLFYNAASA” here?
Answer: The value was “not soluble”.

Question: With “MSATSVDTQRTKGQDNKVQNGSLHQKDTVHDNDFEPYLTGQSNQSNSYPSMSDPYLSSYYPPSIGFPYSLNEAPWSTAGDPPIPYLTTYGQLSNGDHHFMHDAVFGQPGGLGNNIYQHRFNFFPENPAFSAWGTSGSQGQQTQSSAYGSSYTYPPSSLGGTVVDGQPGFHSDTLSKAPGMNSLEQGMVGLKIGDVSSSAVKTVGSVVSSVALTGVLSGNGGTNVNMPVSKPTSWAAIASKPAKPQPKMKTKSGPVMGGGLPPPPIKHNMDIGTWDNKGPVPKAPVPQQAPSPQAAPQPQQVAQPLPAQPPALAQPQYQSPQQPPQTRWVAPRNRNAAFGQSGGAGSDSNSPGNVQPNSAPSVESHPVLEKLKAAHSYNPKEFEWNLKSGRVFIIKSYSEDDIHRSIKYSIWCSTEHGNKRLDSAFRCMSSKGPVYLLFSVNGSGHFCGVAEMKSPVDYGTSAGVWSQDKWKGKFDVQWIFVKDVPNNQLRHIRLENNDNKPVTNSRDTQEVPLEKAKQVLKIISSYKHTTSIFDDFAHYEKRQEEEEVVRKERQSRNKQ” as the sequence, how does the “soluble on expression in E. coli” value read?
Answer: Its value is “soluble”.
